This note sets out measurements from doi:10.1101/2022.03.11.483938v2.

For orientation: Km means the concentration of substrate that gives half-maximal velocity. Usually kcat stands for the maximal rate divided by the concentration of active sites.

Substrate in data set [1]: Nc1ncnc2c1ncn2[C@H]1C[C@H](O)[C@@H](COP(=O)(O)O)O1
Put plainly: purified protein. The note with it: constant hydrolysis rate.

Substrate in data set [2]: Nc1ncnc2c1ncn2[C@@H]1O[C@H](COP(=O)(O)O)[C@@H](O)[C@H]1O
Kind of data set: purified protein. Conditions: hydrolysis rate gradually decreased under the selected conditions.

B1: SiE5NT (ecto-5'-nucleotidase) (Serendipita indica DSM 11827) (protein)
chain: KVDSLVSERALQKRFVDANGNYNVTIVHTNDVHAHLDQWRAGRGTDCTPGSECISGYARIKQKVSELRQSIQDPIFLNAGDEFQGTLFFTYYGGEKISYAINEVGYDVFTLGNHEFDRGQGELAAFLKNLTFPVVCANFKTNDTAMNALNIQPYTIIEKHQLGIIGVITPDTKGTSSGAGPGTEFSDPVQAVQKAVDELQAKNITRIIALTHIGYDKDIELAQKTKGVDLIVGGHSHTLLGNFTNAMGSYPTTAKNLDGEEVFIVTSYRWGEILGKMNIAFDASGKIVSYEGEPLRLTNTTQQDPKLQAEVNEWRQPFDAMAQVVVGTSSVVLDQSICQFSECTLGNVITDAMYEYRKNAGGNVDFALINSGGIRASISEGTVTQGDILTSFPFMNGVVDLTWTGKQLLDIFEGVVSKYSTLSHHATTSFIQVSKQVKFSWNPNNVNQTRLITLEIGGQQVDVNKNYTMVTLDFLASNGDYLWGTRTDFAALDTLDVVLASYFKAHSPVGASIEGRITNSTSTTQQLPGKGSSGGSGGASALIVSGLSAGMMLLAGMMLV
B1: the Km is given as 361.6 µM in “purified protein [1]” and 15.9 µM in “purified protein [2]”. Moreover, the kcat was 11.9 s⁻¹ in “purified protein [1]” and 1.1 s⁻¹ in the data set “purified protein [2]”.
